Reference: the supplement of paper PMC9112550, “Optimization of the antimicrobial peptide Bac7 by deep mutational scanning” (BMC Biology, 2022)

System: Escherichia coli TOP10
Experiment: shrunken log2 fold change of peptide-encoding DNA abundance (4.5 h post-induction vs induction); higher = less antimicrobial activity (less host growth inhibition)
Details: time post-induction: 4.5 h; library: site-saturation at positions 5, 18, 19, 20
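Note: peptides expressed intracellularly from a pBAD plasmid library in pooled LB shake-flask culture, induced with 0.3% L-arabinose, DNA abundance read by NGS, three biological replicates, DESeq2 with apeglm shrinkage.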

Sequence | shrunken log2 fold change
RRIRFRPPRLPRPRPRPFDSPRP | -0.22
RRIRFRPPRLPRPRPRPFECPRP | -0.0767
RRIRFRPPRLPRPRPRPFEQPRP | -0.311
RRIRFRPPRLPRPRPRPFFPPRP | 0.386
RRIRFRPPRLPRPRPRPFGEPRP | 0.135
RRIRFRPPRLPRPRPRPFGKPRP | -0.00111
RRIRFRPPRLPRPRPRPFHPPRP | 0.039
RRIRFRPPRLPRPRPRPFHSPRP | -0.0346
RRIRFRPPRLPRPRPRPFILPRP | -0.749
RRIRFRPPRLPRPRPRPFINPRP | -0.874
RRIRFRPPRLPRPRPRPFIVPRP | -0.772
RRIRFRPPRLPRPRPRPFIYPRP | -0.714
RRIRFRPPRLPRPRPRPFKWPRP | -0.269
RRIRFRPPRLPRPRPRPFKYPRP | -1.26
RRIRFRPPRLPRPRPRPFLCPRP | -0.313
RRIRFRPPRLPRPRPRPFLFPRP | -0.457
RRIRFRPPRLPRPRPRPFLLPRP | -0.696
RRIRFRPPRLPRPRPRPFLNPRP | -0.484
RRIRFRPPRLPRPRPRPFMGPRP | -0.348
RRIRFRPPRLPRPRPRPFNDPRP | 0.00352
RRIRFRPPRLPRPRPRPFNIPRP | -0.429
RRIRFRPPRLPRPRPRPFNYPRP | -0.183
RRIRFRPPRLPRPRPRPFPCPRP | -0.151
RRIRFRPPRLPRPRPRPFPVPRP | -0.0374
RRIRFRPPRLPRPRPRPFPWPRP | -0.211

Sequence | shrunken log2 fold change
RRIRFRPPRLPRPRPRPFQAPRP | -0.91
RRIRFRPPRLPRPRPRPFVEPRP | -0.27
RRIRFRPPRLPRPRPRPFYFPRP | -0.681
RRIRFRPPRLPRPRPRPGADPRP | 0.187
RRIRFRPPRLPRPRPRPGAVPRP | 0.223
RRIRFRPPRLPRPRPRPGCSPRP | -0.0796
RRIRFRPPRLPRPRPRPGDEPRP | 0.0387
RRIRFRPPRLPRPRPRPGDSPRP | -0.305
RRIRFRPPRLPRPRPRPGEDPRP | -0.224
RRIRFRPPRLPRPRPRPGFTPRP | -0.187
RRIRFRPPRLPRPRPRPGGGPRP | 0.727
RRIRFRPPRLPRPRPRPGGYPRP | 0.0294
RRIRFRPPRLPRPRPRPGHYPRP | -0.205
RRIRFRPPRLPRPRPRPGIGPRP | -0.0363
RRIRFRPPRLPRPRPRPGIRPRP | -0.136
RRIRFRPPRLPRPRPRPGKGPRP | -0.159
RRIRFRPPRLPRPRPRPGKKPRP | 0.0937
RRIRFRPPRLPRPRPRPGKMPRP | -0.0519
RRIRFRPPRLPRPRPRPGLPPRP | 0.255
RRIRFRPPRLPRPRPRPGMHPRP | -0.24
RRIRFRPPRLPRPRPRPGMRPRP | 0.44
RRIRFRPPRLPRPRPRPGNYPRP | -0.401
RRIRFRPPRLPRPRPRPGQTPRP | 0.0249
RRIRFRPPRLPRPRPRPGRFPRP | -0.223
RRIRFRPPRLPRPRPRPGRRPRP | 0.334

Sequence | shrunken log2 fold change
RRIRFRPPRLPRPRPRPGSHPRP | -0.225
RRIRFRPPRLPRPRPRPGSSPRP | -0.0565
RRIRFRPPRLPRPRPRPGTMPRP | -0.494
RRIRFRPPRLPRPRPRPGTWPRP | -0.153
RRIRFRPPRLPRPRPRPGVQPRP | 0.119
RRIRFRPPRLPRPRPRPGWHPRP | 0.277
RRIRFRPPRLPRPRPRPGYFPRP | -0.278
RRIRFRPPRLPRPRPRPHAPPRP | -0.062
RRIRFRPPRLPRPRPRPHARPRP | 0.285
RRIRFRPPRLPRPRPRPHCEPRP | -0.0995
RRIRFRPPRLPRPRPRPHDMPRP | -0.292
RRIRFRPPRLPRPRPRPHEWPRP | -0.0176
RRIRFRPPRLPRPRPRPHFHPRP | -0.75
RRIRFRPPRLPRPRPRPHFYPRP | -0.38
RRIRFRPPRLPRPRPRPHGIPRP | -0.00151
RRIRFRPPRLPRPRPRPHGQPRP | -0.0526
RRIRFRPPRLPRPRPRPHKEPRP | -0.203
RRIRFRPPRLPRPRPRPHMDPRP | -1.29
RRIRFRPPRLPRPRPRPHMIPRP | -0.395
RRIRFRPPRLPRPRPRPHNIPRP | -0.501
RRIRFRPPRLPRPRPRPHNKPRP | 0.0525
RRIRFRPPRLPRPRPRPHNWPRP | -0.122
RRIRFRPPRLPRPRPRPHQEPRP | -0.0079
RRIRFRPPRLPRPRPRPHSHPRP | -0.939
RRIRFRPPRLPRPRPRPHSIPRP | -0.248
